Test [1] concerns the target T1, PTg S5 subunit (Bordetella pertussis, UniProt P04981 35-133).
T1 sequence: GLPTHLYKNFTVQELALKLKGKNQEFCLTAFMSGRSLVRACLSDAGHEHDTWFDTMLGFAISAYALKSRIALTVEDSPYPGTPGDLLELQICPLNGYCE
Nature of the test: cryo-EM structure.

In another test the target is PTg S3 subunit (Bordetella pertussis, UniProt P04979). Nature of the test: cryo-EM structure.
For another test, the target named is PTg S2 subunit (Bordetella pertussis, UniProt P04978). The experiment in a line: cryo-EM structure.
PTg S2 subunit, sequence (P04978 28-226): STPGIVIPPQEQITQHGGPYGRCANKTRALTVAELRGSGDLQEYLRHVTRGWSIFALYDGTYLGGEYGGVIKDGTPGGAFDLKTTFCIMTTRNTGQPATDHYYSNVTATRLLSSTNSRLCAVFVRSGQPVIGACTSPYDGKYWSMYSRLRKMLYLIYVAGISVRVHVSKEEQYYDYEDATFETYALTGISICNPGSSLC
The target of test [2] is Pertussis toxin (PT), enzymatically active (Bordetella pertussis; strain of bought …, UniProt P04977;P04978;P04979;P0A3R5;P04981). The experiment in a line: ELISA. On the technique in general: ELISA stands for enzyme-linked immunosorbent assay.
Pertussis toxin (PT), enzymatically active, sequence (P04978 28-226, chain 2 of 3): as the sequence (P04978 28-226) above
Pertussis toxin (PT), enzymatically active, sequence (P04979 29-227, chain 3 of 3): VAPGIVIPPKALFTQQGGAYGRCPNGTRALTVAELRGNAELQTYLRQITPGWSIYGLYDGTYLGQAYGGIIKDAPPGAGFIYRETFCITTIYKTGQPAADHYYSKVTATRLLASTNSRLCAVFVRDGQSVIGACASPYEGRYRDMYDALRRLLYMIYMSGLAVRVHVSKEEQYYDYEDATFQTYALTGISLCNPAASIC
Pertussis toxin (PT), enzymatically active, sequence (P0A3R5 43-152, chain 4 of 3): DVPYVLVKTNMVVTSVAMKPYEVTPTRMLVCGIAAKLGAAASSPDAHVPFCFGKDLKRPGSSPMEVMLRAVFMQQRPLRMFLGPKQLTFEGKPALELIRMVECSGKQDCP
For test [3], the target named is PTg S5 subunit (Bordetella pertussis, UniProt P04981). The experiment in a line: cryo-EM structure.

PTg S3 subunit, sequence (P04979 29-227): as the sequence (P04979 29-227, chain 3 of 3) above

B1: PTg S1 subunit ([change], [change]) (natural protein)
chain: DDPPATVYKYDSRPPEDVFQNGFTAWGNNDNVLDHLTGRSCQVGSSNSAFVSTSSSRRYTEVYLEHRMQEAVEAERAGRGTGHFIGYIYEVRADNNFYGAASSYFEYVDTYGDNAGRILAGALATYQSGYLAHRRIPPENIRRVTRVYHNGITGETTTTEYSNARYVSQQTRANPNPYTSRRSVASIVGTLVRMAPVIGACMARQAESSEAMAAWSERAGEAMVLVYYESIAYSF
Regarding B1, the binding result with PTg S5 subunit [1] is on record as “binds”.

B2: hu11E6 Fab (Fab, V domains shown)
VH: EVQVVESGGGLVQPGRSLRLSCTTSGFTFTDYYVSWVRQAPGKALEWLGFIRNKVNGYTTEFSSSVKGRFTISRDNSKSILYLQMNSLKIEDTAVYYCARVSYYGRGWYFDYWGQGTTLTVSS
VL: DIVMTQSPSSLSASVGDRVTISCRASQDIDNYLSWFQQKPGGTVKLLIYYTSRLHSGVPSRFSGSGSGTDYTLTISSLQPEDIATYFCQQGNTFPWTFGGGTKLEIK
On to B2, for which the binding result in the test with PTg S3 subunit and in the test with PTg S2 subunit was “binds” in each case.

B3: hu1B7mut IgG (hu1B7 heavy chain S56A, Q61A, Q64A) (antibody, V domains shown)
VH: QVQLVQSGAEVKKPGASVKVSCKASGYKFTSYWMHWVRQAPGQGLEWIGNIFPGSGATNYAAKFAGRVTLTVDTSTSTAYMELSSLRSEDTAVYYCTRWLSGAYFDYWGQGTTVTVSS
VL: QIVLTQSPATLSVSPGERVTLTCSASSSVSFMYWYQQKPGRAPKPLIYLTSNLPSGVPARFSGSGSGTSYTLTINSLEAEDAATYYCQQWSSHPPTFGSGTKLEIK
Consider B3, for which the binding result in test [2] is “binds”.

B4: hu1B7 Fab (Fab, V domains shown)
VH: QVQLVQSGAEVKKPGASVKVSCKASGYKFTSYWMHWVRQAPGQGLEWIGNIFPGSGSTNYAQKFQGRVTLTVDTSTSTAYMELSSLRSEDTAVYYCTRWLSGAYFDYWGQGTTVTVSS
VL: QIVLTQSPATLSVSPGERVTLTCSASSSVSFMYWYQQKPGRAPKPLIYLTSNLPSGVPARFSGSGSGTSYTLTINSLEAEDAATYYCQQWSSHPPTFGSGTKLEIK
For the molecule B4, in the test with PTg S5 subunit [3], the binding result is given as “binds”.

B5: hu1B7 IgG (antibody, V domains shown)
VH: QVQLVQSGAEVKKPGASVKVSCKASGYKFTSYWMHWVRQAPGQGLEWIGNIFPGSGSTNYAQKFQGRVTLTVDTSTSTAYMELSSLRSEDTAVYYCTRWLSGAYFDYWGQGTTVTVSS
VL: QIVLTQSPATLSVSPGERVTLTCSASSSVSFMYWYQQKPGRAPKPLIYLTSNLPSGVPARFSGSGSGTSYTLTINSLEAEDAATYYCQQWSSHPPTFGSGTKLEIK
Regarding B5, in test [2], the binding result is recorded as “binds”.

The record behind these values is article PMC11463501 (bioRxiv, 2024).
